Results: patent publication US7563864B2, “Prolyl endopeptidase mediated destruction of T cell epitopes in whole gluten” (Celiac Sprue Research Foundation, priority 2004, dated 2009)

What was measured:
TCC 370 E3.19 = experiment: T cell clone assay, α-III specific clone; type: cell-based, human; details: clone 370E3.19; FIGS. 6A and 6B
Method: (§1) Prolyl endopeptidase (PEP) and Brush Border Membrane (BBM) treatment—Recombinant PEP (Sp. Act ˜40 U/mg) was added at a ratio of 200 mU/mg of the PTC-digested gluten substrate, and incubated at 37° C. for 15 min to 1 h and then heat de-activated, depending on the sample. Subsequently BBM (65 mU (DPP IV activity)/mg substrate) was added and the mixture was incubated for 1 h and heat de-activated. Control samples contained PEP and BBM buffer solutions without the enzymes.
(§2) T cell assays—The generation of polyclonal gluten-specific T cell lines derived from ex vivo gluten challenged small intestinal biopsy specimens of adult Celiac Sprue patients have been described elsewhere. For this study 14 different intestinal T cell lines derived from 13 DQ2+celiac patients were selected based on two basic criteria; effective recognition of TG2-treated digests of gluten and significant responses to at least two different gluten epitopes (Table 2). The generation of intestinal T cell clones and the epitope specificity of these clones, except TCC 387.3, has been described elsewhere (10). The TCC 387.3 recognizes a TG2-dependent epitope, defined as γ-VI that is contained within residues 62-72 (PQQPFPQQPQQ) of recombinant γ-5 gliadin. […] The proliferation in the wells was evaluated by ^3H thymidine incorporation from 48-72 hours after the addition of the T cells.

TCC 387.3 = experiment: T cell clone assay, γ-VI specific clone; type: cell-based, human; details: FIG. 6B
Method: as §1, §2

PEP activity assay = type: biochemical; details: recombinant PEP; pH 7.5, 37° C.
Method: Carboxypeptidase A: 995 μL 1.0 mM Hippuryl-L-Phe in 25 mM Tris and 500 mM NaCl, pH 7.5 was mixed with 5 μL Carboxypeptidase A (0.2 mg/ml). Absorption at 254 nm was recorded for 2′, every 10″. One unit hydrolyzes 1 μmol of Hippuryl-L-Phe per min at pH 7.5 and 25° C. Extinction coefficient 0.36 cm^2/μmol at 254 nm. PEP: To 10 μL Z-Gly-Pro-p-Nitroanilide 16.8 mg/ml in dioxane were added 70 μL dioxane, 120 μL water and 800 μL PBS buffer. This substrate solution was incubated at 37° C. for 10′; then 0.2-2 μL PEP were added and the absorption at 410 nm was recorded for 2′, every 10″. One unit hydrolyzes 1 μmol of Z-Gly-Pro-p-Nitroanilide per min at pH 7.5 and 37° C. Extinction coefficient 8.8 cm^2/μmol at 410 nm.

T cell clone 430.1.135 = experiment: T cell clone assay, α-II specific clone; type: cell-based, human; details: FIGS. 6A and 6B
Method: as §1, §2

[1] = system: polyclonal T cell lines derived from small intestinal biopsies of Celiac Sprue patients; experiment: T cell assays, 14 polyclonal T cell lines taken together; type: cell-based, human; details: PEP in combination with gastric and pancreatic enzymes and brush border membrane enzymes; in most cases
Method: Gluten treatment with gastric and pancreatic enzymes—Wheat gluten flour (3.0 g) was added to 100 ml of water with addition of HCl to achieve a stable suspension at pH 2.0. Pepsin (Pepsin NF powder, 1:10000, 60 mg) was mixed in to the gluten suspension and the gluten-pepsin mixture was shaken constantly at 37° C. for 2 h. After the pepsin treatment had been completed, 350 mg of Na2HPO4 were added and the pH adjusted to 7.9 by addition of 0.1 M NaOH. Trypsin/Chymotrypsin (38 mg) were added and the mixture was shaken again at 37° C. for 2 h and then heated to >95° C. for 10 min. After cooling to room temperature, 74 μL of the mixture was treated with Elastase (20 μL, 1 mg/ml) and the mixture was diluted to 1.7 mg/ml using PBS buffer, pH=7.5. The mixture was maintained at 37° C. After 2 h the digested gluten suspension was heated to 95° C. for 10 minutes and cooled to room temperature. After this, 20 μL of Carboxypeptidase A were added and incubated for 2 h at 37° C., and subsequently heat deactivated. […]
T cell assays—The generation of polyclonal gluten-specific T cell lines derived from ex vivo gluten challenged small intestinal biopsy specimens of adult Celiac Sprue patients have been described elsewhere. […] The proliferation in the wells was evaluated by ^3H thymidine incorporation from 48-72 hours after the addition of the T cells.

TCC 387 E9 = experiment: T cell clone assay, α-I specific clone; type: cell-based, human; details: clone 387E9; FIGS. 6A and 6B; after 60 min PEP treatment
Method: as §1, §2

B1: PEP: Recombinant prolyl endopeptidase, Flavobacterium meningosepticum enzyme (protein, UniProt P27028 21-705, looked up)
Prolyl endopeptidase: QNSNVLKYPETKKVSHTDTYFGTQVSDPYRWLEDDRAEDTKAWVQQEVKFTQDYLAQIPFRDQLKKQLMDIWNYEKISAPFKKGKYTYFSKNDGLQAQSVLYRKDAAGKTEVFLDPNKFSEKGTTSLASVSFNKKGTLVAYSISEGGSDWNKIIILDAETKKQLDETLLDVKFSGISWLGDEGFFYSSYDKPKEGSVLSGMTDKHKVYFHKLGTKQSQDELIIGGDKFPRRYIGAYVTDDQRYLVVSAANATNGNELYIKDLKNKTDFIPIITGFDSNVNVADTDGDTLYLFTDKDAPNKRLVKTTIQNPKAETWKDVIAETSEPLEINTGGGYFFATYMKDAIDQVKQYDKNGKLVRAIKLPGSGNASGFGGEKTEKDLYYSFTNYITPPTIFKYNVTTGNSEVYQKPKVKFNPENYVSEQVFYTSSDGTKIPMMISYKKGLKKDGKNPTILYSYGGFNISLQPAFSVVNAIWMENGGIYAVPNIRGGGEYGKKWHDAGTKMQKKNVFNDFIAAGEYLQKNGYTSKEYMALSGRSNGGLLVGATMTMRPDLAKVAFPGVGVLDMLRYNKFTAGAGWAYDYGTAEDSKEMFEYLKSYSPVHNVKAGTCYPSTMVITSDHDDRVVPAHSFKFGSELQAKQSCKNPILIRIETNAGHGAGRSTEQVVAENADLLSFALYEMGIKSLK
Question: With B1 as the molecule, how does the “T cell clone response to treated gluten: destruction of the α-III epitope” value (TCC 370 E3.19) read?
Answer: almost completely destroyed at the earliest time point

Question: And the “T cell clone response to treated gluten: destruction of the γ-VI epitope” value (TCC 387.3)?
Answer: persist for longer durations

Question: What about the “specific activity (Sp. Act)” value (PEP activity assay) of the same molecule?
Answer: ~40 U/mg

Question: And the “T cell clone response to treated gluten: destruction of the α-II epitope” value (T cell clone 430.1.135)?
Answer: almost completely destroyed at the earliest time point

Question: And the “immune response of patient derived intestinal T cells, relative to the response induced by positive controls” value [1]?
Answer: less than 2%

Question: And the “T cell clone response to treated gluten: destruction of the α-I epitope” value (TCC 387 E9)?
Answer: retains some activity
